Source: the DeepSol protein solubility set

test: soluble on expression in E. coli; label from the status in PepcDB or PDB records

Sequence	soluble on expression in E. coli
MGSHHHHHHDITSLYKKAGSAAAVLEENLYFQGSFTMRLKELGEFGLIDLIKKTLESKVIGDDTAPVEYCSKKLLLTTDVLNEGVHFLRSYIPEAVGWKAISVNVSDVIANGGLPKWALISLNLPEDLEVSYVERFYIGVKRACEFYKCEVVGGNISKSEKIGISVFLVGETERFVGRDGARLGDSVFVSGTLGDSRAGLELLLMEKEEYEPFELALIQRHLRPTARIDYVKHIQKYANASMDISDGLVADANHLAQRSGVKIEILSEKLPLSNELKMYCEKYGKNPIEYALFGGEDYQLLFTHPKERWNPFLDMTEIGRVEEGEGVFVDGKKVEPKGWKHF	soluble
GPLGSMPYSDAKAMLDEVAKIRELGVQRVTRIENLENAKKLWDNANSMLEKGNISGYLKAANELHKFMKEKNLKEDDLRPELSDKTISPKGYAILQSLWGAASDYSRAAATLTESTVEPGLVSAVNKMSAFFMDCKLSPNERATPDPDFKVGKSKILVGIMQFIKDVADPTSKIWMHNTKALMNHKIAAIQKLERSNNVNDETLESVLSSKGENLSEYLSYKYATKDEGREHRYTASTENFKNVKEKYQQMRGDALKTEILADFKDKLAEATDEQSLKQIVAELKSKDEYRILAKGQGLTTQLLGLKTSSVSSFEKMVEETRESIKSQERQTIKIK	soluble
MGSDKIHHHHHHMNMKYQHIIEVDKELCIGCGLCKNDCPVNNIIIENKKSVIKKQDCLMCGHCAAICPTKAITLTGFDEPPIELTNKPKLDSDELLMAIKSRRSIRKFKDKEVSSEIIKQIIEAGRYTPSAKNSQDVSYIVLDNKKSIYENEAVKFFRKIKPIANIAIKYSKEVEIDDNFFFKHAPIAIMIITKDKISGSLAASNMALMAESYGLGVLFSGYFSDVANNSPKLKKLLGLKRSNHVLTTLVIGYPDVKYRRTAQKEVATVRYL	not soluble
SLDFRDKVRNMDLQAGLYRHYKGQNYRVLGVARHSETEEALVIYQALYGEFGLWVRPLEMFTEAVEVDGEWVPRFVLVSPEADPLGLQKAPGGEDRA	soluble
AARQMEALNRGLVAVKTDGGIFVSWRFLGTENASVLFNVYRDGQKLNAAPVKTTNYVDKNGSAGSTYTVRAVVNGTEQPASEKASVWAQPYHSVPLDKPAGGTTPKGESYTYSANDASVGDVDGDGQYELILKWDPSNSKDNSQDGYTGDVLIDAYKLDGTKLWRINLGKNIRAGAHYTQFMVYDLDGDGKAEVAMKTADGTKDGTGKVIGNANADYRNEQGRVLSGPEYLTVFQGSTGKELVTANFEPARGNVSDWGDSYGNRVDRFLAGIAYLDGQRPSLIMTRGYYAKTMLVAYNFRDGKLSKLWTLDSSKSGNEAFAGQGNHNLSIADVDGDGKDEIIFGSMAVDHDGKGMYSTGLGHGDALHTGDLDPGRPGLEVFQVHEDKNAKYGLSFRDAATGKILWGVYAGKDVGRGMAADIDPRYPGQEVWANGSLYSAKGVKIGSGVPSSTNFGIWWDGDLLREQLDSNRIDKWDYQNGVSKNMLTASGAAANNGTKATPTLQADLLGDWREEVVWRTEDSSALRIYTTTIPTEHRLYTLMHDPVYRLGIAWQNIAYNQPPHTSFFLGDGMAEQPKPNMYTPLEHHHHHH	soluble
MKKVIAGLAAASVAGVAVPGMDSAHAQVSNEALKEINGQTQTQTQTQTTVTETKTVETTSELKYTVTADVLNVRSGAGTGHNVISKVKSGQVLQVVGQENGWFKVNVNGQTGYVSGDFVTTGGKTGTTVQQGTGTYTVNVSSLNVRTGPSTSHTVLGSVNKGKTVQVVGEVQDWFKINFNGGTGYVSKDFVTKGGSAVSNETQQPTTNNNTTTVQTGGSYVVNTGALKVRTGPATYNAVIGGVTNGKVLNVTGAENGWYKINHNGRTGYVSADFVKFVKGGVNNVTNNNNVTNNVQQPGKDVQKPTTGGDTSSIAGFARSLNGSPYRTAGTTPAGFDCSGFIHYVLNQTGHKGARQTVAGYWSSKTKTSNPQPGDLVYFQNTYKSGPSHMGVYLGNGQFISAETDATGVRISSVSNSYWSKHLLGYTKAYLEHHHHHH	soluble
MGSDKIHHHHHHMKIIHIVESSATGTLSMVCLIANRLAREGHDVHVIYSVRPDTPPALAAMFDTRVSLRHVQMKGAGLLRIAGRLRATLNEIGPDVVHLHSSFAGFLGRLSTLFALPKAAFFYSPHCISFMRRDISGVKRMAFIGLEWIACVRKCLYVACSESEGHAIRAWLRQPVVVVENAVSDTRSPQRSGDAERLADGPPCVVTVGGIRAQKNPELFARIAHGMRARGTRFVWIGDGDAAEKARLAEAGVEVTGWLPRDEVVRRLERADVYLSTSSWEGMPVSVIEAMLAGRPVIVSDCAGNVDVVRHLQTGLIYTTASDAIAWLERLAGDDALRRELARRASREARQRFGEERLFGELAPLYAASVAR	not soluble
MGSDKIHHHHHHMISVCIATYNGEKYLAEQLDSILLQVSEEDELIISDDGSTDHTLEILRTYAANYPQIQLLQGPGQGVIANFAFALTHTKGEVIFLADQDDVWLPNKVTTVTEYFETHPDIQVVISDLKIVDADLQVTNPSYFKFRKVKPGFWRNAIKSGYIGAGMAFRQEMKNVILPIPPEVPMHDMWIGLLAARKKQTGLIKEPLVLYRRHGANVSPIITKTSFQQKLNWRVNLLKALHQRLKEQR	not soluble
MGSDKIHHHHHHMIIDRLFDSVEKKGHVCLGLDTDITYVPEEFCKKFNSIEDAIFNFNKKIIDATLDVVSCYKVQIAYYEAYGLKGLLAYKRTLEYLREKKAIAIADIKRGDIAKTAEMYAKAHFEGDFEADFVTLNPYMGLDGIEPYMPYIEKMEKGLFILLRTSNKGAYDIQYIKTQGGKNVYDEVGEKIYDLGQKATGRSKYSSIGAVVGCTHVEEGVEIRNKFKNMFFLIPGYGAQGGTAKEVSLYLREGNGGVVNSSRGILLAYKKEENGEKIFDECARLAAINMRDEIRKTL	not soluble
DHFFELMGTTTEQAYELVDLHPAYRLFPEGSPALDVDSGVGNVATLFDALHPGAGKKVQRYLRNATDVYHLSLRHFLYTTFSNPRDFLRADILRRLPYLARLLSSSLDTWVRNRFPHPILRQILSYPAVFLSTQPTQAPALYSLMSHTDLVEGVHYPRGGFAAIMSAIEKIDREAGVEFYYEHEVTDITIESGRACGITAAGPHGTSTFNADVVVSAADLHHTETRLLPPHLRSYPENYWSKRNPGLGTVLIMLGVRGHLPELAHHNLLFSKDWDPDFAAVYSGPHPSRPLGASQSIYISKTSATDSDAAPEGHENLFILVPVPANDALGHGNTYHHTASPRVEEITRATIAQIATWTGISDLDERIVVTKTIGPADFSERYHAWSSGAIGPAHTLMQSAFFRGKNMASKVKGLYYAGGTTVPGVGVPMCLISAENVITRIKAE	not soluble
PQEEVVRLHASSGTTGKPTVVGYTQNDIDTWANVVARSIRAAGGRKGDKVHVSYGYGLFTGGLGAHYGAERLGCTVIPMSGGQTEKQVQLIRDFHPDIIMVTPSYMLNLADEIERQGIDPHDLKLRLGIFGAEPWTDELRRSIEQRMGINALDIYGLSEIMGPGVAMECIETKDGPTI	not soluble
MGSDKIHHHHHHMHMAAKRGRTAQRLELGLQLRQLRENCDGGDRGVGLTRKQAVQGLRISEASLQRIETGSLNFRFVGDLRKLLTKYGVTDEDVVDSLISLNRESNQQDWLTQYRGLMPSGMPGFVGLEPEAHAMKAYHPTLVYGLLQTERYARAVHEVQKPIEEYTTEFIRSSVELRMKRQEVLTRESPVKLHVILGEAALRYPIGGAEVMREQCARIEELSGWDHITVQVLPFRPSYRSINDFAILDFGNNLPPRVQADSAWGSVSTSDKPREVDRFSRRFDTMTASALPPEDTPEFLHRLEREL	not soluble
QALEYSGTKRFVYVIDENNKATRQEVLLGARVDNEVVIESGVEIGDKIVVQGIVNMRDGVEVKEIVAPLKANTTDVTRNDSESVEEEN	not soluble
MAHHHHHHMDEEVVLRGVEDITCRCVYSHVYVYARVCVFGYVLPSSSVVYRGTLAMECTFGVHEKKNKMKKNKCYLRGQTIGTRDTVCGVMCLNIPPRHCYCSFFLFPFYNPFLL	not soluble
MSLKIHTLRLILGDQLNARHSWFREKDAGVLYVMMELKQETDYVVHHRQKVLAFFAAMRAFGNALNTSGHQVNYIKLDDDTNEQSLTQNLQQLMKKYEVTTLECQQPDEYRLDHQLKSWAGANNIHLSWFDTEHFLTGRNSLKEYFPNSENYLMETFYRRVRKQYDILMDGGRPTGGRWNYDKENQKKVPASHDVELPLIFSNDVSDIDELLRSSEIKTMGQANAAQLIWEGHHHHHH	not soluble
MTGFDFSDKTVWVTGAGKGIGYATALAFVDAGARVIGFDREFTQENYPFATEVMDVADAAQVAQVCQRVLQKTTRLDVLVNAAGILRMGATDALSVDDWQQTFAVNVGGAFNLFSQTMAQFRRQQGGAIVTVASDAAHTPRIGMSAYGASKAALKSLALTVGLELAGCGVRCNVVSPGSTDTDMQRTLWVSEDAEQQRIRGFGEQFKLGIPLGKIARPQEIANTILFLASDLASHITLQDIVVDGGSTLGA	not soluble
MSERLESRLAKVPKVTPEDIGNWLAEAETESELTEELNANAVFYLALSFAYESIAADAARYFSYTDGEESVDKSMIFANYKKLSADALKKYRKYRRGKGTHQTFAKRADGR	not soluble
MSLDLNDTYSGKREPFSGDHSADGFEVTSRSEMSSGSEISPVSEMPSSSEPSSGADYDYSEEYDNEPQIPGYIVDDSVRVEQVVKPPQNKTESENTSDKPKRKKKGGKNGKNRRNRKKKNPCNAEFQNFCIHGECKYIEHLEAVTCKCQQEYFGERCGEKSMKTHSMIDSSEGHHHHHH	soluble
AIAPSDLAKKKAAKKKEAAKARGRTRKPEDGVNGDAEKPEIQENGAAEVNGVDSLAKELDEFELKKTEARAVTGVLASHPNSTDVHISSLSLTFHGQELLSDTSLELNSGRRYGLIGLNGTGKSMLLSAISHREVPIPEHIDIYHLTREMAPSEKTALQCVMEVDEERIKLEKEAERLAHEDSECEKLMELYERLEELDADKASMRASRILHGLGFTTSMQQKKLKDFSGGWRMRVALARALFLKPFMLLLDEPTNHLDLDACVWLEEELSQFKRILVLISHSQDFLNGVCTNIIHLHQRKLKYYTGNYDQYVKTREELEENQMKRFNWEQDQIAHMKNYIARFGHGSAKLARQAQSKEKTLQKMVASGLTERVVNDKTLSFYFPPCGKIPPPVIMVQNVSFRYSENTPYIYKNLEFGIDLDTRVALVGPNGAGKSTLLKLLTGELLPSDGMIRKHSHVKIGRYHQHLTEQLELDLSPLEYMMKCYPEIKEKEEMKKIIGRYGLTGKQQVSPIRNLSDGQKCRVCFAWLAWQNPHMLFLDEPTNHLDIETIDALAEAINDFEGGMMLVSHDFRLIQQVAQEIWVCEKQTITKWSRDILAYKEHLKSKIDKQMHDL	soluble
STNNNPAPLLGFRIAHLLEQEPDTKDLTINVKTEILKHEFGPIKSSFSFSPHKFFEEDVKKQELYFFLIAVGIEEDDAKLMMTDMIFYVLGNIDELRGVLTLLLKVQFPSFEPIEEH	soluble
MKESMSSVDIKYITEELKDMIVGSRVEKIYHEGNEIRFKLHKTGVGRVDLLIEAGKRIHITTYVKENLQPTSFAMLLRKYLSGKFLEDIRQYEFDRVVILSFGEYFLIAELFGRGNIIFVTKDWEIIGALRYEEFKDRAIKPKIKYVFPPSRANPLKVSFEEFKEIILNSQGTEIVRALAKNFSIGGLYSEETLLRAKIDKDRKVDELSEEELRLVYDTLLTVLNDEKKPNIVYNKEGVMVDVVPIDLQWYREYTKRYYESFSEALDEYFGKLTIEKARLEKTKQLEERRKALEISLRRIEEQIKGFEKEAMTNQEKGDALYAHYSIVNEILRVISSALKQYGVEEVKKRIEEGKKAGYPWAKMIIDVTDNKVTLNLDGIKVSLDVEKSLEENAELYYERAKKAKKKLEGAKIAYEETKRKLIELEKEIERESKEINIKKITRKKKKWFE	not soluble
